Reference: US20130230533A1 (Regeneron, published 2013)

T1: monomeric monkey CD48 expressed with a tag consisting of 2 myc and one 6-His epitopes (monkey)
T1 construct: also called mfCD48-mmH; Monomeric monkey CD48-mmH
T1 chain: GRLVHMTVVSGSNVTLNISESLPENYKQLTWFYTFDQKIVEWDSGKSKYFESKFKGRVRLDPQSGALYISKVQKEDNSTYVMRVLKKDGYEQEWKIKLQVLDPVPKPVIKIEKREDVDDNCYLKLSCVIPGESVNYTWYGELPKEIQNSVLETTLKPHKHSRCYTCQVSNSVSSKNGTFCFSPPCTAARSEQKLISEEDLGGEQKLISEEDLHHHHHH

T2: biotinylated dimeric human CD48 protein expressed as a fusion with mouse IgG2a Fc (human, biotinylated)
T2 construct: also called bio-hCD48-mFc; Dimeric human CD48-mFc
T2 chain: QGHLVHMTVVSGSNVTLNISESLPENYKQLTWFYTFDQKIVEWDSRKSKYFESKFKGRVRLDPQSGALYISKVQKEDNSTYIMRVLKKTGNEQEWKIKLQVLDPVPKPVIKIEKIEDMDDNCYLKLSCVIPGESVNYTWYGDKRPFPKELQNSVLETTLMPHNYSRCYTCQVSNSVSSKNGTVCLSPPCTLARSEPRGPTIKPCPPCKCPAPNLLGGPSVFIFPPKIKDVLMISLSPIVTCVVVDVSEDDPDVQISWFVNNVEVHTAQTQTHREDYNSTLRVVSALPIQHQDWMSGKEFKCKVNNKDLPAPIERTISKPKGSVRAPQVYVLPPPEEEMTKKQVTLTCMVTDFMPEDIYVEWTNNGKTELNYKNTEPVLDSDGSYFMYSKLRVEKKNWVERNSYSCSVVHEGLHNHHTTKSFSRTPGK

T3: human CD48 (on primary human peripheral blood mononuclear cells) (human, UniProt P09326 27-220)
T3 sequence: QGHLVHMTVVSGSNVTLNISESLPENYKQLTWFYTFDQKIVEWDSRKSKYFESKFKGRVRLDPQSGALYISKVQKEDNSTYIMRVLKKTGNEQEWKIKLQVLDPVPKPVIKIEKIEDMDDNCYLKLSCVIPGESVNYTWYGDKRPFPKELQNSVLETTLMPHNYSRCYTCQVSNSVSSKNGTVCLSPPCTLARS

B1: H2M1707N (antibody, V domains shown)
VH: EGQLLESGGGLAQPGGSLRLSCAASGITFGRYAMSWVRQAPGKGLEWVSLISGSGGSTYHADSVKGRFTISRDNSKNTLYLQMNSLRAEDTAVYYCAIYNNYNWFDPWGQGTLVTVSS
VL: EIVLTQSPGTLSLSPGERATLSCRASQSVSSNYLAWYQQKPGQAPRLLIYDASSRATDIPDRFSGSGSGTDFTLTISRLEPEDFAVYYCQQYGSSPRTFGQGTKVEIK
notes: Human variable domains, mouse IgG2 Fc (H2M)
B2: H2M1763N (antibody, mouse IgG2, V domains shown)
VH: QIQLVQSGAEMKRPGTSVKVSCKASGYTFTSYGINWVRQAPGQGLEWMGWISAYNGDTNYAQKLQGRVTMTTDTSTTTAYMEVRSLRSDDTAVYYCARFLTGTKDYYYGMDVWGQGTTVTVSS
VL: DIQMTQSPSSLSASVGDRVTITCQASQDISNFLNWYQQKPGKAPDLLINDASILETGVPSRFSGSGSGTDFTLTINNLQPEDIATYYCQQYDNLPLTFGGGTKVEIK
notes: as for B1
B3: H2M1764N (antibody, mouse IgG2, V domains shown)
VH: QVQLVESGGGVVQPGRSLRLSCAASGFTFSDYGMHWVRQAPGKGLEWVAVIWNDGSNKNYADSVKGRFSISSDSSKNTLYLHMNSLRAEDTAVYYCARSLYSTSPWYFDLWGRGTLVTVSS
VL: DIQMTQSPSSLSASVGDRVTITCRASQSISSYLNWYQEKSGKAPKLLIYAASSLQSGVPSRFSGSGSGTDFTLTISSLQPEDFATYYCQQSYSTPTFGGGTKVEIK
notes: as for B1
B4: H2M1710N (antibody, mouse IgG2, V domains shown)
VH: QVQLVQSGADMKKPGASVRVSCKASGYTFTDYFIHWVRQAPGQGPEWMGWINPDSGATNYAQQFQGRVTMTRDTSISATYMEMSRLRSDDTAVFYCARDKDGSGWYLDDWGQGTLVTVSS
VL: EIVLTQSPATLSLSPGERATLSCRASQSVNIYLAWYQQKPGQAPRLLIYDASNRASGIPARFSGSGSGTDFTLTISSLEPEDFAVYYCQQRSNWPPSITFGQGTRLEIK
notes: as for B1
B5: H2M1713N (antibody, mouse IgG2, V domains shown)
VH: QVQLVQSGAEVKKPGASVKVSCKASGHTFTNYYIHWVRQAPGQGLEWMGITNPNDGNTRYAQKFQGRISMTWDTSTSTVFMELSSLKSEDTAVYYCAGLRYWFFDLWGRGTPVTVSS
VL: DIQMTQSPSSVSASVGDRVTITCRASQDISSWLAWYQQKPGKAPNLLIFAASSLQSGVPSRFSGSGSGTDFTLTISSLQPEDFGTYYCQQTDNFPRTFGQGTKVEIN
notes: as for B1

Experiments:
[1] = target: T1, monomeric monkey CD48 expressed with a …; experiment: competition ELISA; blocks mfCD48-mmH binding to coated h2B4-mFc
Summary of the method: (§1)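 Fixed amounts of bio-hCD48-mFc or mfCD48-mmH were titrated with antibody, preincubated 1 h at 25 °C, then bound to h2B4-hFc- or h2B4-mFc-coated plates 1 h at 25 °C. Human CD48 detected with streptavidin-HRP, monkey CD48 with HRP anti-myc; TMB, A450; sigmoidal dose-response fit.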

[2] = target: T2, biotinylated dimeric human CD48 protein …; experiment: competition ELISA; blocks bio-hCD48-mFc binding to coated h2B4-hFc
Description: (§2) The ability of human anti-CD48 monoclonal antibodies to block human CD48 and monkey CD48 binding to the human cognate ligand, human 2B4, was measured using a competition sandwich ELISA (Table 8). Constant amounts of biotinylated dimeric human CD48 protein expressed as a fusion with mouse IgG2a Fc (“bio-hCD48-mFc” [SEQ ID NO: 387]) or monomeric monkey CD48 expressed with a tag consisting of 2 myc and one 6-His epitopes (“mfCD48-mmH” [SEQ ID NO: 386]) were separately titrated with varying amounts of antibodies. These antibody-protein complexes were incubated (1 hr, 25° C.) before being transferred to microtiter plates coated with a dimeric construct expressing the human 2B4 receptor fused to a either human IgG1 (h2B4-hFc [R&D Systems, Inc., Minneapolis, Minn., Cat. No. 1039-2B]) or mouse IgG2a Fc (h2B4-mFc [SEQ ID NO: 389). After a 1 hr at 25° C. the wells were washed and bound human CD48 was detected with streptavidin conjugated with horse-radish peroxidase (HRP), and monkey CD48 was detected with an HRP conjugated anti-myc polyclonal antibody. The ELISA was developed with a TMB solution to produce a colorimetric reaction and quenched with sulfuric acid before reading absorbance at 450 nm on a Victor X5 plate reader. Sigmoidal dose response curves were fit to the data using Prism™ software. […] (Tables 8 and 9, NB=no binding observed)

[3] = target: T2, biotinylated dimeric human CD48 protein …; experiment: competition ELISA; blocks bio-hCD48-mFc binding to coated h2B4-mFc
Summary of the method: as §1

[4] = target: T3, human CD48 (on primary human peripheral …); experiment: cell-based or functional assay
[5] = target: T1, monomeric monkey CD48 expressed with a …; experiment: competition ELISA; blocks mfCD48-mmH binding to coated h2B4-hFc
Description: as §2

[6] = target: T3, human CD48 (on primary human peripheral …); experiment: cell-based or functional assay; remark: listed apart in the source

| IC50 [1] [nM] | IC50 [2] [nM] | IC50 [3] [nM] | Inhibition of IFN-gamma Release IC50; Donor 6 [4] [Molar] | Inhibition of IFN-gamma Release IC50; Donor 7 [4] [Molar] | IC50 [5] [nM] | Inhibition of IFN-gamma Release IC50; Donor 1 [6] [Molar] | Inhibition of IFN-gamma Release IC50; Donor 2 [6] [Molar] | Inhibition of IFN-gamma Release IC50; Donor 3 [6] [Molar] | Inhibition of IFN-gamma Release IC50; Donor 4 [6] [Molar] | Inhibition of IFN-gamma Release IC50; Donor 5 [6] [Molar] | Binder |
| --- | --- | --- | --- | --- | --- | --- | --- | --- | --- | --- | --- |
| 0.0049 | 0.022 | 0.0086 | 9.3e-12 | 1.9e-11 | 0.023 | 4.9e-11 | 3e-11 | 1.1e-10 | 1.7e-10 | 1.5e-11 | B1 |
| 0.0023 | 0.0088 | 0.0055 | 2.6e-11 | 1.8e-11 | 0.013 | 4.9e-11 | 3.4e-11 | 1.3e-10 | 7.5e-11 | 1.9e-11 | B2 |
| 0.062 | 0.064 | 0.029 | 1e-10 | – | 0.24 | 2.7e-11 | 1.1e-10 | 1.9e-10 | 9.5e-11 | 1.9e-11 | B3 |
| 0.26 | 0.58 | 0.49 | 5e-11 | 1.4e-10 | 0.37 | 7.8e-10 | 1.9e-10 | 1.1e-06 | 1.5e-09 | 2.7e-10 | B4 |
| 0.0025 | 0.026 | 0.022 | 2.2e-11 | 1e-10 | 0.024 | 2.1e-11 | 7.6e-11 | – | 1.1e-10 | 1.1e-11 | B5 |
